According to patent publication US20240392271, “ENGINEERED CASX REPRESSOR SYSTEMS” (Scribe Therapeutics Inc., published 2024):

How the values were obtained:
Assay in all cases: cell_activity; PAM TTC; day 50
ELXR1-ZNF10 (#1.B) = biological target: T1, ELXR1-ZNF10 (#1.B) (synthetic construct); details: tags: DNMT3A CD, DNMT3L ID, ZNF10 KRAB fusion, NLS
T1 chain: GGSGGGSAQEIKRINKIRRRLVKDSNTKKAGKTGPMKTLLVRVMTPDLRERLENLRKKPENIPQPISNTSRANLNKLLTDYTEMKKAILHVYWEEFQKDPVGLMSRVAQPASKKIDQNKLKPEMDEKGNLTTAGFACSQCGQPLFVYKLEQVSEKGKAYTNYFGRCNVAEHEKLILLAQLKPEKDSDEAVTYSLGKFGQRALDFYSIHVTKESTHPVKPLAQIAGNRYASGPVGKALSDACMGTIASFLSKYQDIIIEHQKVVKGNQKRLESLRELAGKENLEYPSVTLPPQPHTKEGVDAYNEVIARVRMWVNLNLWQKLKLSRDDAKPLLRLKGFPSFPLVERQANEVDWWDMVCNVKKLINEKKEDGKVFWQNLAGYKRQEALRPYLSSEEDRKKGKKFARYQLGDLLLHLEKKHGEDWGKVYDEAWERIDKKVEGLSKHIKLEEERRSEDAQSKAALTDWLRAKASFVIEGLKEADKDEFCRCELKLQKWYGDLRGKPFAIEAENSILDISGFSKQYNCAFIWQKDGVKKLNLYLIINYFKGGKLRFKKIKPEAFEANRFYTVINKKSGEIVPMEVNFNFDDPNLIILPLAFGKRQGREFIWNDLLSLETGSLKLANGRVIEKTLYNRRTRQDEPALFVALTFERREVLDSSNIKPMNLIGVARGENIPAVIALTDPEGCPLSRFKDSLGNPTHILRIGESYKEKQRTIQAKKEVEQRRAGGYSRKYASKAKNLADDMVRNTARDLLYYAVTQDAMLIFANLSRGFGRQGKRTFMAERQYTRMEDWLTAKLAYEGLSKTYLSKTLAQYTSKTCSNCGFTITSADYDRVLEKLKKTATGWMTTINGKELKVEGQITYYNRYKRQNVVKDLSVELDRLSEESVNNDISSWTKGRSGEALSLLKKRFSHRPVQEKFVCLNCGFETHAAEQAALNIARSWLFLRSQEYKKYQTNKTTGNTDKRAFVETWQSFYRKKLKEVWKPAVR

ELXR1-ZIM3 (#1.A) = biological target: T2, ELXR1-ZIM3 (#1.A) (synthetic construct); details: tags: DNMT3A CD, DNMT3L ID, ZIM3 KRAB fusion, NLS
T2 chain: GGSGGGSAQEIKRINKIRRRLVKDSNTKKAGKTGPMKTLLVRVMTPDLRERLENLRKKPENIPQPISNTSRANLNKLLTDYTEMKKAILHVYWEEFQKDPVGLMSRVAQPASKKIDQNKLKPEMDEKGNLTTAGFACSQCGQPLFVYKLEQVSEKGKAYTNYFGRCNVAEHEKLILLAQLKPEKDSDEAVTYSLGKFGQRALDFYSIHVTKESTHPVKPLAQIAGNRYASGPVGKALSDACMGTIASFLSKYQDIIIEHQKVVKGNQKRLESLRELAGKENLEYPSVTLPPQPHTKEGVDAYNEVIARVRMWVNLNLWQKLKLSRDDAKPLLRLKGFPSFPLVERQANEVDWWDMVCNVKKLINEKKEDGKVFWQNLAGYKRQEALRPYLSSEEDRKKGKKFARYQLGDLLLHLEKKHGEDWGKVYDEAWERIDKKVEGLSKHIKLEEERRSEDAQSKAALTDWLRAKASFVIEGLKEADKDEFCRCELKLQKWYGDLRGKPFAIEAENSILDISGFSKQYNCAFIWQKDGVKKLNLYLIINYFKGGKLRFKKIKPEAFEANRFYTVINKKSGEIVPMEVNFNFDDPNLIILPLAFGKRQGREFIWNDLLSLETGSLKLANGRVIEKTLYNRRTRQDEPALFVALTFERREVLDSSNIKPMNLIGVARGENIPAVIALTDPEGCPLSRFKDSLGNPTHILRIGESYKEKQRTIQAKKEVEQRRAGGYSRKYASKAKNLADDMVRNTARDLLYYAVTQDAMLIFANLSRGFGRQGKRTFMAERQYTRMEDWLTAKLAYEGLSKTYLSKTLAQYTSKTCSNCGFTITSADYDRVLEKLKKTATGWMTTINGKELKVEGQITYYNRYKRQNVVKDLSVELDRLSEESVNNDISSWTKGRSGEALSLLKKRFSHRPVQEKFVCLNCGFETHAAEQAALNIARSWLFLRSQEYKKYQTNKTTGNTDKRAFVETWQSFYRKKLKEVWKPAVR

ELXR3-ZIM3 (#3.A) = biological target: T3, ELXR3-ZIM3 (#3.A) (synthetic construct); details: tags: DNMT3A CD, DNMT3L ID, ZIM3 KRAB fusion, NLS
T3 chain: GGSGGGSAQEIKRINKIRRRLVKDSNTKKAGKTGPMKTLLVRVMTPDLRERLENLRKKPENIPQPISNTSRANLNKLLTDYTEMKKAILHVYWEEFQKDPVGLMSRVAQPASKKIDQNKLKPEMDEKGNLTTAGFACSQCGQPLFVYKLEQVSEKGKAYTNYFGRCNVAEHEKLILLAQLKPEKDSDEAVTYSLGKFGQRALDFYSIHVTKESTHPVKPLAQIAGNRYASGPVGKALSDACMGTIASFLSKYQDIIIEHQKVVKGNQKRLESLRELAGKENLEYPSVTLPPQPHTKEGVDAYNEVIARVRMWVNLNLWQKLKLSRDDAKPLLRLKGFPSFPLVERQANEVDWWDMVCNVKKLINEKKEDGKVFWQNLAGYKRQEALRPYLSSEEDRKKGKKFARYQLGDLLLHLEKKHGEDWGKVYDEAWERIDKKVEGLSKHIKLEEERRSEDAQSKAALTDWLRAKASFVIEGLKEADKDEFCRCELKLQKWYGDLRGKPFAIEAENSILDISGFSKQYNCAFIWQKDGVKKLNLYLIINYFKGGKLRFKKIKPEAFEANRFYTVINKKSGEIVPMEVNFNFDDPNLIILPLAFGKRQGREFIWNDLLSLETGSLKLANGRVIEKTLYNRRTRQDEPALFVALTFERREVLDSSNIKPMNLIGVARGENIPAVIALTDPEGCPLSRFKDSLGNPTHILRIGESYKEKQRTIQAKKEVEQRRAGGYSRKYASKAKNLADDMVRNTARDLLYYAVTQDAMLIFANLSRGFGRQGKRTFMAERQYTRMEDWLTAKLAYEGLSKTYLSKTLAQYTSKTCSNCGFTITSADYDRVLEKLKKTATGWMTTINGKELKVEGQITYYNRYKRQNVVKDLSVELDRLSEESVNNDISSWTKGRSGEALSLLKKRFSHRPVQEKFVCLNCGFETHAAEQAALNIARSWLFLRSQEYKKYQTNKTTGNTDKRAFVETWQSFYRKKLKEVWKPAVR

ELXR3-ZNF10 (#3.B) = biological target: T4, ELXR3-ZNF10 (#3.B) (synthetic construct); details: tags: DNMT3A CD, DNMT3L ID, ZNF10 KRAB fusion, NLS
T4 chain: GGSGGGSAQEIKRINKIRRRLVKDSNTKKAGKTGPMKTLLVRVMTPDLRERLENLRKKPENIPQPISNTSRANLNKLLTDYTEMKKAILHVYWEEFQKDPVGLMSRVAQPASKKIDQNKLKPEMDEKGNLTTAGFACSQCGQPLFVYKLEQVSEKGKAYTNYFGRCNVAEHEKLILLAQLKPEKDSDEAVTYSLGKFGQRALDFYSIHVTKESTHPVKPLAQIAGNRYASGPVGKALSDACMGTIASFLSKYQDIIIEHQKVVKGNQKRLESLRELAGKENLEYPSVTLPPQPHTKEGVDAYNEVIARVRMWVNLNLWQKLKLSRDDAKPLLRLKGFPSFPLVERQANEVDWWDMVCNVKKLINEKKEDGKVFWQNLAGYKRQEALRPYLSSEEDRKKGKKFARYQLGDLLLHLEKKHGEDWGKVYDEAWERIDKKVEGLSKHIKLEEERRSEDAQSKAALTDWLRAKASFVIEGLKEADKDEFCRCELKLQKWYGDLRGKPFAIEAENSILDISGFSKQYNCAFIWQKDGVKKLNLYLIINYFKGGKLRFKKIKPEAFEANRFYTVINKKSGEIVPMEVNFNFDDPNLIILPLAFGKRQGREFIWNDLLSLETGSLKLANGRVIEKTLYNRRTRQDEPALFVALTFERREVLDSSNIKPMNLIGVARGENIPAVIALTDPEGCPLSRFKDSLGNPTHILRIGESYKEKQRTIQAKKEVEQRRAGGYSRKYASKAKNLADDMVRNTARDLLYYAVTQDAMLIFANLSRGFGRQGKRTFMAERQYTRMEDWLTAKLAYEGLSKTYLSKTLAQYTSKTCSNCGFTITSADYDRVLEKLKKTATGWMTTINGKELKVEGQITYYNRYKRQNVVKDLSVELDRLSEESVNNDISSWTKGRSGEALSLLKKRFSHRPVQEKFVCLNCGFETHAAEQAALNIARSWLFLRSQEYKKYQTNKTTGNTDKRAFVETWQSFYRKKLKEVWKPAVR

ELXR2-ZNF10 (#2.B) = biological target: T5, ELXR2-ZNF10 (#2.B) (synthetic construct); details: tags: DNMT3A CD, DNMT3L ID, ZNF10 KRAB fusion, NLS
T5 chain: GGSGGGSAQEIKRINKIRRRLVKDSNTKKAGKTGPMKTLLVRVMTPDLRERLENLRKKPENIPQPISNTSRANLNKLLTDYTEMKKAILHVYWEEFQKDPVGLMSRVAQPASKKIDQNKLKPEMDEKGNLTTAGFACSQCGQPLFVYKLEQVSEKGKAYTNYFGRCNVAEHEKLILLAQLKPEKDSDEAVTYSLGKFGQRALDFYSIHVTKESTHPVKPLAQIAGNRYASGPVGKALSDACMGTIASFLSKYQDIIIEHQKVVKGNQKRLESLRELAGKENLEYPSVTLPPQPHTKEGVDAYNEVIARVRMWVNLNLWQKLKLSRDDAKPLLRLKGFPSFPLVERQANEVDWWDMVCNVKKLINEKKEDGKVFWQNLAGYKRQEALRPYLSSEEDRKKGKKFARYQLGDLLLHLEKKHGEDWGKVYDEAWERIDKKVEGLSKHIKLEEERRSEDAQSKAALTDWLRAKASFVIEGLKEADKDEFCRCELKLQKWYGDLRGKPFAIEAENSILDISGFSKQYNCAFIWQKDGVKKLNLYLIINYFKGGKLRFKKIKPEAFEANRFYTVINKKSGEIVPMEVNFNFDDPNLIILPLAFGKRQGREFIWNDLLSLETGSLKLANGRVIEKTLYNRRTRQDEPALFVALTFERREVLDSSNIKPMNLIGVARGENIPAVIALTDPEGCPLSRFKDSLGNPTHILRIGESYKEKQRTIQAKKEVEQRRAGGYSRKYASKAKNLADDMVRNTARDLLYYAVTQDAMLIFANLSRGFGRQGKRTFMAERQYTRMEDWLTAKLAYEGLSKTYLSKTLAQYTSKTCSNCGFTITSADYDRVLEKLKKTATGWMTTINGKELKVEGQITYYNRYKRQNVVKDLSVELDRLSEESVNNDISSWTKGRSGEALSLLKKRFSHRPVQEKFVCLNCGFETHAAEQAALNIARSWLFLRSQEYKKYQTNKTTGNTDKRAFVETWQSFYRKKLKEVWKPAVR

B1: gRNA scaffold 174 + spacer 7.37 ; B2M target 7.37 (ssRNA ; dsDNA)
RNA: ACUGGCGCUUUUAUCUGAUUACUUUGAGAGCCAUCACCAGCGACUAUGUCGUAGUGGGUAAAGCUCCCUCUUCGGAGGGAGCAUCAAAGGGCCGAGAUGUCUCGCUCCG
DNA 1: GGCCGAGATGTCTCGCTCCG
DNA 2: CGGAGCGAGACATCTCGGCC
Q: With B1 as the binder, how does the activity (ELXR1-ZNF10 (#1.B)) read?
A: Its activity is 70 % HLA-negative cells.

Q: And the activity (ELXR1-ZIM3 (#1.A))?
A: The activity was 73.7 % HLA-negative cells.

Q: And the activity (ELXR3-ZIM3 (#3.A))?
A: Its activity is 17.5 % HLA-negative cells.

Q: And the activity (ELXR3-ZNF10 (#3.B))?
A: Its activity is 17.1 % HLA-negative cells.

Q: What about the activity (ELXR2-ZNF10 (#2.B)) of the same binder?
A: The activity was 36.9 % HLA-negative cells.
